Reference: the supplement of paper PMC12042874
± gives the uncertainty stated by the source.

assay: amyloid nucleation score (Sup35N fusion, yeast selection) (log enrichment); library NNK3; higher = more nucleation; inactive = no reads after selection
In short: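 Peptides of 20 random codons fused to Sup35N were expressed in psi-negative yeast, induced 24 hours with 100 μM copper sulfate, then grown 7 days at 30°C on medium lacking adenine and uracil. Input and output plasmid inserts were Illumina-sequenced. Nucleation score is the DiMSum log enrichment of output over input reads, centred on the mode score of non-aggregating sequences, excluding sequences with under 100 input reads. Random libraries had three technical output replicates.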

Amyloid nucleation score, 1.13 ± 0.11:
HSRTYFQSISGWISCLMSTL

Amyloid nucleation score, 0.592 ± 0.21:
LQFVMLRTWVLRSRGTQAVT

Amyloid nucleation score, 0.641 ± 0.14:
LQVLFSYYFENRSGDLVRDD

Amyloid nucleation score, 0.006 ± 0.3:
MPNLAFSG

Amyloid nucleation score, 0.887 ± 0.19:
KTLIVVAVSFIWL

Amyloid nucleation score, 1.33 ± 0.14:
KVRQARGILASEGIGQETVG

Amyloid nucleation score, 0.37 ± 0.16:
GDNHSQD

Amyloid nucleation score, inactive:
VRVSLDRTGYKSSCHVVSRG
YVRSYLILS
KRVDYCFMIGVMTCVNHPTE
RSAFYHNVGGKNRVSWSIL
TSVRELNLMPCDENSTICDI
FISLWQPPRL
VNRKLWGT
KYNPTMSNYSGLLWKIGVGT
FDWIE
LACLIHS
AWCKGV
CEFTYGKDAKVRTEAYHAYW
FLMVGKISKMFKQYNLLFH
LHHAVVREWRFQKNVCRQLR
LSLREE
PLVMGFIRVHCIFRRRFG
CTHLLFCPMGRVSTCSLKME
LVGYRAQLHGVNYSMFVGIS
AICVLRSMKLLYQVWTW
IRCMRGTTRHVSGLKRVERN
LRLNLMSILKVEYRCSMITW
WLSRPLCIIGWASRSMRGSH
CRCNWENCCMDQL
FKLVGDIYYQYVYALPRNKL
PFPHKDQYHGGGKWPDE
RSGLHVEGLRSLHRGKVGPC
LKYIDTSFMLGFSIVSLRFQ
ITGPTSVYE
ANKSCGHVDWDIGESYMARL
GLEFRARRKCRTKGELHDK
LDLFSRNSETRAKSDRVWWT
SSLTSNCPRKALKREVVRHW
EYAKMSLCPSYRFCVLFASW
NEMHFLS
CSMPFTSSEKLGKCGNDAPF
PFNPSYIFRLLYL
LYNFRECTQTSFISFVCQLV
STRRSYNPCYWSGLYSSIGH
RAYSSWSLSSCRCNSDWTVG
MSIMVASRLALARNVPLQKV
SFSVPVELSEP
DGCALSMPNYAGNQVVKQRG
VSSFFSLPCTSAPVIDWVGV
IWRGSKDYKSPVRHFSQAN
YSVFAVFILRHGSRILY
KLEMYVARSCDCAYDRCWGR
LGGNMTCLSQDYLRTSKELL
ANVRMS
LVLMCIIARIAVVYKR
TPAMYFPIYFSAHGHLYLFY
TGVMRYRCLNLFVASICSVP
GYMWNRVGCLVEDDHNEGVN
GDEWGSFLECFITITSSIND
WVVKKVPDGRFLFVDCVCGI
TISISR
TDFIIRKSYQLLEFYFY
YRRKVELIRSLRW
FQWITSIRSSKKMGCY
SYWRLHVIIFLWFFYLRYFN
MRNVVSSISRCFDMKAVQQR
TDAIVFMEHSDVGRSSLDWN
FWLGGVDLAPKVGKQTMNLA
GDSLGGTYYLLRSFFCCRDL
QELMEKDGRASKDQAWASIV
IRTQYQEREASILYM
NVRGDSRA
FPMDL
WDEIIY
VMTIGTRV
MVHPDTRKRQTRGTG
LSSFNDDMNGVTFYPSISLD
SFYPLCRQAVTDMFNKHCFP
GLPLVACLMSEQYCL
QRITDKMSYADSLLRSST
SKSNIRYSNTNGH
VHREVGLDFYDNVTCTMFHI
RTFFYWIKLAINFSNVCRGF
KLNGFPWRPAWHEVMAGWVW
SSSQTISQGDSGHLHYKVWS
RVHLGGMYRWVCEVNV
THVPYIT
CYWKLYCGNEYYGVSFMGVL
NSKGMLCWLTA
FQVLN
KPPGLNRHYTSCDMLSWALN
QLIWYTACKASIDVNRHGSG
FKSVIESTLMIETDY
ESAKFYLYSAR
FQCRYLKHDDKDNYFKGNGK
MISICCGIPCLFIFWFRASA
VSFRYAYYWFCRTMMTAAKR
MHYMRFLWSGLLWASVETFV
SWIKEFIQFIFIEGFRC
FSFITLMVTLSSVKIGEIWW
EICKSLKLCNIWNCRIMLRS
DKALS
DRKLLYY
ESMRGSYSYYSSGCLHD
PIVEYVFTPMF
CVNMLRKTVIYFLHFPAYYR
FKGPVDCSVIV
MYTTDYVYRVLVSHFRVPRM
VPEVG
VSMFMNRNQKSIKNRVRHYM
LHSFLRCDCSIARF
FLMVLSMDLYVKLLLGSYIN
AFLGEEVNSTLLKS
WCNMVRVHMF
IKWVCTEVRSGCLSVDCVLV
VYLYIWQKVSGHHYGFQMDW
NNLVPYLVWYCVTRNKTNGN
IVYTSSLSAMCMRGRNGAVR
CPYVKSHSICDDSSGLPRLK
PSLQRSQRVSEFRTM
AACHINNICKSLVL
MQYDASP
YLQLTRQTSYVIIAL
VLVEVEIYLILFIVYAW
LCHRY
APRRHVKGDSHIRWCVRDR
IYRLFSARDDIVKDWRR
WSSSS
MLLDTLCNHLRVYKYVRGDG
ESFWVML
MTSFVWSCWRHYYRSRIVVV
IVIRTSSDTNVRAAVQLRMN
LVQSTRGSRSNTWACNERFV

Amyloid nucleation score, -0.797 ± 1.4:
ILFKLVKWSAMSFLRCRLFS

Amyloid nucleation score, 0.531 ± 0.24:
KAPRCGVKAMLKGVMGFRRR

Amyloid nucleation score, 0.65 ± 0.16:
YWNMKNFCSTTIIHRKGRFG

Amyloid nucleation score, -0.829 ± 1.1:
VNIWLPKTPLQLKLNLPSSM

Amyloid nucleation score, -0.378 ± 1.4:
REVELSNVYYNDVSACLHKK

Amyloid nucleation score, -0.247 ± 1.3:
AWAVEATRFILLRWGQGTWD

Amyloid nucleation score, 0.089 ± 0.71:
VGGLSSDPTADISFVVVFQD

Amyloid nucleation score, 0.699 ± 0.17:
TVLGM

Amyloid nucleation score, -0.291 ± 0.46:
RGLWLEQRAVNNYVGR

Amyloid nucleation score, -0.727 ± 1:
LWPRRADVKQASRQPDYQCV

Amyloid nucleation score, -0.38 ± 0.78:
TLANQSHLISYYDSDHCRLL

Amyloid nucleation score, 2.36 ± 0.059:
SLAMTFYSGIGFYCFSCFFN

Amyloid nucleation score, 0.399 ± 0.43:
WGTLTLCTGDAGLSMTGKWV

Amyloid nucleation score, 0.58 ± 0.17:
KEVTSLVLIVFT

Amyloid nucleation score, -0.176 ± 0.98:
FDDPHGTVTCED

Amyloid nucleation score, 1.55 ± 0.1:
SSPSWFTYLVKQVALRSVTQ

Amyloid nucleation score, 2.32 ± 0.066:
CWLPFVCCAQCLNRIDVVSR

Amyloid nucleation score, 1.17 ± 0.14:
KLLSTRRCFRCLLGQWSLFM

Amyloid nucleation score, 1.6 ± 0.082:
VNKNVMWHDNNKFFHPFRAI

Amyloid nucleation score, -0.481 ± 1.4:
ATEDPKLESGCVAEIVPFRG

Amyloid nucleation score, 0.008 ± 0.48:
AAYADR

Amyloid nucleation score, 0.403 ± 0.24:
RRFVVGYRDLMMRFIVRHGE

Amyloid nucleation score, 0.71 ± 0.33:
GCVRGCTATWRMLCAGSKCC

Amyloid nucleation score, 0.636 ± 0.23:
RWNMLIDVHLNVYHRQDRWC

Amyloid nucleation score, 2.38 ± 0.059:
SFNITAWMMFMNVIQGYSI
